The data set relates to MS2 coat protein. In words: apparent KD of MS2 coat protein; designed switch direction (-1 OFF switch, 1 ON switch): -1; higher = weaker reporter binding. In outline:
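RNA switches sharing common flanks were transcribed by stalled E. coli RNA polymerase on Illumina chips. A doubling series of SNAP-549-labelled MS2 coat protein, from 0.7 or 1.5 nM to 3 µM, was applied in Tris-HCl pH 7.5 buffer with KCl, MgCl2, BSA, DTT, tRNA and Tween-20. Each step lasted 0.8–1.5 h at the bottom of the series and 10–20 min at the top. Normalised cluster fluorescence was curve-fitted, giving apparent KD as the per-design median over clusters.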

[1] abbreviates: input ligand: microRNA oligo, concentration not stated.

As for “ACAUGACUAGGAUAUACAUGAGGAUCACCCAUGUGACCACAAACAUGCUAUAUGGGCAGUAGAAGGAGUUGGAA [Eternabot (L1) Solution 86] (Eterna round: R97, puzzle: Exclusion 3)”, the “apparent KD of MS2 coat protein” value (input ligand: FMN 200 uM) was 82.9 nM and the “apparent KD of MS2 coat protein” value (input ligand: none) came out at 75.9 nM.
“ACAUGAGGAUCACCCAUGUAAUCAUAAUGGCUGAUGUAGAGUCAGGAUAUGUGUGGCUUACUAUCGCAGAAGGGACAAGACUGG [Deportation 33 - Jieux - Exclusion NG 3] (Eterna round: R96, puzzle: Exclusion NG 3)”: the “apparent KD of MS2 coat protein” value (input ligand: FMN 200 uM) was 26.3 nM, the “apparent KD of MS2 coat protein” value under setting [1] worked out at 14.2 nM and the “apparent KD of MS2 coat protein” value (input ligand: none) was 25.9 nM.
For the sequence “ACAUGAGGAUCACCCAUGUAAUCAUGAUGGCUGAUGUAGACUCAGGAUAUGUGUGGCUUUCUAUCACAGAAGGGAGAAGACUGG [Deportation 37 - Jieux - Exclusion NG 3] (Eterna round: R96, puzzle: Exclusion NG 3)”, the “apparent KD of MS2 coat protein” value runs as follows: (input ligand: FMN 200 uM) 59.7 nM; under setting [1], 116 nM; (input ligand: none) 129 nM.
Turning to “ACAUGAGGAUCACCCAUGUACAGGGUUUAGUUUCAUCGUUUGAAGGAUAUACACUGUUAGUUGUCGUAGAAGGUCACUGAUUGG [JR_ExcNG3_Sub010] (Eterna round: R96, puzzle: Exclusion NG 3)”, the “apparent KD of MS2 coat protein” value worked out at 93.9 nM (input ligand: FMN 200 uM), 93.3 nM under setting [1] and 130 nM (input ligand: none).
For “ACAUGAGGAUCACCCAUGUCCGGCUGGUCCGUCUCGGCUGUCGAGGAUAUAGCUCGGUAUCCGCGCUAGAAGGCGGGAGCCGGA [Aenatbe mod 84] (Eterna round: R96, puzzle: Exclusion NG 3)”, the “apparent KD of MS2 coat protein” value (input ligand: FMN 200 uM) amounted to 45.3 nM, the “apparent KD of MS2 coat protein” value under setting [1] was found to be 29.1 nM and the “apparent KD of MS2 coat protein” value (input ligand: none) is 44.4 nM.
In the same order, the values of “ACAUGAGGAUCACCCAUGUCCGGCUGGUCUGUCUCGGCUGUCGAGGAUAUAGCACGGUAUCCGCGCUAGAAGGCGGGAGCCGGG [Aenatbe mod 88] (Eterna round: R96, puzzle: Exclusion NG 3)” are 237 nM, 127 nM and 193 nM.
The matching figures for “ACAUGAGGAUCACCCAUGUCGAGUACAUGAGGAUCACCCAUGUAGGAUAUGGUUCGCUUUGCGUGCUAGAAGGAUAUAUGUUGA [salish99_ExNG3_r04_511] (Eterna round: R96, puzzle: Exclusion NG 3)”: 780 nM, 297 nM and 457 nM.
In the same order, the values of “ACAUGAGGAUCACCCAUGUGAAAAGAAUGGCUGACACAGAGAUAGGAUAUGUGUGCAUAUCUAACACAGAAGGGUCAUGACUGG [Deportation 80 - Jieux - Exclusion NG 3] (Eterna round: R96, puzzle: Exclusion NG 3)” are 41.6 nM, 34.2 nM and 40.1 nM.
As for “ACAUGAGGAUCACCCAUGUGAAAGAAAUGGCUGACUUUGAGCUAGGAUAUUUGUGCAUAUCAAACAAAGAAGGAGCAUUACUGG [Deportation 99 - Jieux - Exclusion NG 3] (Eterna round: R96, puzzle: Exclusion NG 3)”, the “apparent KD of MS2 coat protein” value is, setting by setting: (input ligand: FMN 200 uM) 20.4 nM; under setting [1], 16.9 nM; (input ligand: none) 20.6 nM.
Consider “ACAUGAGGAUCACCCAUGUGCACGUAAUGGCUCAUGUAGAGUGAGGAUAUGCGUGGCGAACGAGCGCAGAAGGCACAAGACUGG [Deportation 17 - Jieux - Exclusion NG 3] (Eterna round: R96, puzzle: Exclusion NG 3)”, for which the “apparent KD of MS2 coat protein” value reads like this: (input ligand: FMN 200 uM) 106 nM; under setting [1], 56.4 nM; (input ligand: none) 72.6 nM.
In the same order, the values of “ACAUGAGGAUCACCCAUGUUUGGCUGGUCCUCUCCGGCUGUCGAGGAUAUAGUACGGUAUCCGCGCUAGAAGGUGAGGGCCGGC [Aenatbe] (Eterna round: R96, puzzle: Exclusion NG 3)” are 16.4 nM, 10.1 nM and 17.1 nM.
In the same order, the values of “ACAUGAGGAUCACCCAUGUUUGGCUGGUCGUCUCCGGCUGUCGAGGAUAUAGUACGGUAUCCGCGCUAGAAGGUGAGGGCCGGC [Raxeorer] (Eterna round: R96, puzzle: Exclusion NG 3)” are 11.5 nM, 14.6 nM and 19.3 nM.
In the same order, the values of “ACAUGAGGAUCACCCAUGUUUGGCUGGUUCUCUCCGGCUGUUGAGGAUAUAGUCCGGUAUCCGCGCUAGAAGGUGAGGGCUGGC [Aenatbe mod 7] (Eterna round: R96, puzzle: Exclusion NG 3)” are 13.5 nM, 15.8 nM and 24.2 nM.
Turning to “ACAUGAGGAUCACCCAUGUUUGGCUGGUUUUCUCCGGCUGUCGAGGAUAUAGUCCGGUAUCCGCGCUAGAAGGUGAGGGUCGGC [Aenatbe mod 3] (Eterna round: R96, puzzle: Exclusion NG 3)”, the “apparent KD of MS2 coat protein” value amounted to 12.1 nM (input ligand: FMN 200 uM), 17.6 nM under setting [1] and 21.6 nM (input ligand: none).
In the same order, the values of “ACAUGAGGGAAGGGAGGAGGGACAUGAGGAUCACCCAUGUCUCAGGAUAUAGAAGAAGAAAGAAACUAGAAGGGAGAGGAGGGU [Kawasakiqro] (Eterna round: R96, puzzle: Exclusion NG 3)” are 29.7 nM, 16.6 nM and 25 nM.
In the same order, the values of “ACAUGCCUUGCAGGAUAUAGGACACAUGAGGAUCACCCAUGUGGUUUCAUGUCUAACCAAGCGUCCUAGAAGGGCGGGAACAUG [Ex NG2 #28] (Eterna round: R96, puzzle: Exclusion NG 2)” are 44.9 nM, 25.8 nM and 36.5 nM.
In the same order, the values of “ACAUGUAAUGCAGGAUAUCUGACACAUGAGGAUCACCCAUGUGACCAGAGGAAUUGCUAAGAGUCGGAGAAGGGUAUGUACAUG [Ex NG2 #53] (Eterna round: R96, puzzle: Exclusion NG 2)” are 19.4 nM, 12.8 nM and 19.7 nM.
With “ACAUGUCAUCGAGGAUAUUGGACACAUGAGGAUCACCCAUGUACUCGGAGGCUCUACUAUGAGUUCGAGAAGGCGAUGUACAUG [Ex NG2 #75] (Eterna round: R96, puzzle: Exclusion NG 2)”, the “apparent KD of MS2 coat protein” value by setting is: (input ligand: FMN 200 uM) 355 nM; under setting [1], 45.4 nM; (input ligand: none) 49.9 nM.
In the same order, the values of “ACAUGUCUUGUAGGAUAUAGUUGACAUGAGGAUCACCCAUGUUGAUUCAUGUCUAUCGAAAGGGACUAGAAGGACGAGAAUAUG [Ex NG2 #16] (Eterna round: R96, puzzle: Exclusion NG 2)” are 87.5 nM, 20 nM and 32.2 nM.
As for “ACAUUACAUGAGGAUCACCCAUGUGAGGAUAUGGAGCGAGACUGUCCUGUCGCGUACACCAGAAGGCGCGGGUG [1st #51] (Eterna round: R97, puzzle: Exclusion 1)”, the “apparent KD of MS2 coat protein” value is, setting by setting: (input ligand: FMN 200 uM) 115 nM; (input ligand: none) 131 nM.
The matching figures for “ACCUCACAUGAGGAUCACCCAUGUCAGGAUAUCUAAUGUAGUCGCGUUCCCGACGCUAAGAGAAGGGACAUUAA [EX1 #34] (Eterna round: R97, puzzle: Exclusion 1)”: 22.6 nM and 14.1 nM.
The matching figures for “ACCUCACAUGAGGAUCACCCAUGUCAGGAUAUCUAAUGUAGUCGCGUUCCCGACGCUAAGAGAAGGGACGUUAA [EX1 #35] (Eterna round: R97, puzzle: Exclusion 1)”: 14.6 nM and 16.1 nM.
The matching figures for “ACCUCCGCGAAGGAUAUUAGCACAUUGACAGAUUGAGAAGGUCGCACAUGAGGAUCACCCAUGUGAGGUCAUCC [Eternabot (L1) Solution 82] (Eterna round: R97, puzzle: Exclusion 6)”: 19.3 nM and 21.5 nM.
For the sequence “ACCUCUACGCUUUCCAAGGGUAGACCUGGUGUUUGUCACACAUGAGGAUCACCCAUGUGCACUGUGCGAGUCGAACA [solution 38] (Eterna round: R96, puzzle: Sensor v2, turn-off variant 2)”, the “apparent KD of MS2 coat protein” value reads like this: (input ligand: FMN 200 uM) 49.5 nM; under setting [1], 40.2 nM; (input ligand: none) 50.6 nM.
For “ACCUUACUGGUCAGGAUAUACAGUCUUUGGUGUGUGUAGAAGGGACAUGAGGAUCACCCAUGUAGGUUGUUUUA [alecazam62b] (Eterna round: R97, puzzle: Brourd's mod of Exclusion 4)”, the “apparent KD of MS2 coat protein” value by setting is: (input ligand: FMN 200 uM) 237 nM; (input ligand: none) 165 nM.
For the sequence “ACGAAGCUUUUUGCUCGUCACAUGAGGAUCACCCAUGUGGGCCCGGGCGCCCGGGCCGACAUCCCACUAGGACAUGU [#2] (Eterna round: R97, puzzle: Sensor, turn-off variant 1)”, the “apparent KD of MS2 coat protein” value is, setting by setting: (input ligand: FMN 200 uM) 104 nM; (input ligand: none) 122 nM.
“ACGCACACGCACGCACGCACACAUGAGGAUCACCCAUGUAAUUAGGAUAUAUUGAAGAACAGAGAAUAGAAGGAAUUACUCAUG [Default title] (Eterna round: R96, puzzle: Exclusion NG 3)”: the “apparent KD of MS2 coat protein” value by setting is: (input ligand: FMN 200 uM) 105 nM; under setting [1], 88 nM; (input ligand: none) 70.7 nM.
In the same order, the values of “ACGCAUUGCCUUUGGUAGUGCGUAACAUGAGGAUCACCCAUGUAGGAUAUGGUAGGCUUUGCUUACCAGAAGGACAUAAUAAUU [JL ENG3 1.01] (Eterna round: R96, puzzle: Exclusion NG 3)” are 54.1 nM, 21.7 nM and 26.1 nM.

For the origin of these results see the supplement of paper PMC9170038.
